Measured values as given in patent US20220041711A1 (NGM BIOPHARMACEUTICALS, published 2022).
Blank lines part the entries; values can stand above or below the binder they belong to.

How the values were obtained:
[1] = target: T1, SCARA5 expressed on transfected 293T cells (UniProt Q6ZMJ2 1-495, limits assumed); assay: flow cytometry on 293T-SCARA5 cells, Alexa647 anti-mouse IgG secondary
T1 construct: whole, on cells

[2] = target: T2, COL13A1 expressed on transfected 293T cells (UniProt Q5TAT6 1-717, limits assumed); assay: IHC on 293T-transfected cell pellets; '-' = no detectable signal
T2 construct: whole, on cells
T2 sequence (Q5TAT6 whole entry): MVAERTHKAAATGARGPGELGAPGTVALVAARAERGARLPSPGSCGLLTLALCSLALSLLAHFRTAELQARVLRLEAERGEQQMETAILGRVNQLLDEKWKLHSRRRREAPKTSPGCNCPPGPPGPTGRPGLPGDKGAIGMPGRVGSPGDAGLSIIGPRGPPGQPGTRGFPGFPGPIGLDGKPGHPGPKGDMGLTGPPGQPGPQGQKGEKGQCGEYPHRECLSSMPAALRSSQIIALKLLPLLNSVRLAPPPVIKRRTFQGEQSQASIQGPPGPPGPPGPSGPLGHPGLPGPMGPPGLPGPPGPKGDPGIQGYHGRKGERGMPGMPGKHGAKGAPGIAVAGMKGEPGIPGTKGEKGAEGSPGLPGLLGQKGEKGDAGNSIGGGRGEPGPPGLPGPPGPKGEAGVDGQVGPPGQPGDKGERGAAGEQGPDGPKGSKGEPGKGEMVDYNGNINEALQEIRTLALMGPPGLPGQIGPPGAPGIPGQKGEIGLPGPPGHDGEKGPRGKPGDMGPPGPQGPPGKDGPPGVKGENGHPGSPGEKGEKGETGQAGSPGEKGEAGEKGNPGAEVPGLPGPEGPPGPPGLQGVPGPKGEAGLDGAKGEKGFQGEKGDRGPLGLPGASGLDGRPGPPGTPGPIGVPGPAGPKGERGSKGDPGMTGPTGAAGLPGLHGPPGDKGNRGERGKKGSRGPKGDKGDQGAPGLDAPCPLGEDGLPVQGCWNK

[3] = target: T3, MSR1 expressed on transfected 293T cells (UniProt P21757 1-451, limits assumed); assay: flow cytometry on 293T-MSR1 cells, Alexa647 anti-mouse IgG secondary
T3 construct: whole, on cells
T3 sequence (looked up): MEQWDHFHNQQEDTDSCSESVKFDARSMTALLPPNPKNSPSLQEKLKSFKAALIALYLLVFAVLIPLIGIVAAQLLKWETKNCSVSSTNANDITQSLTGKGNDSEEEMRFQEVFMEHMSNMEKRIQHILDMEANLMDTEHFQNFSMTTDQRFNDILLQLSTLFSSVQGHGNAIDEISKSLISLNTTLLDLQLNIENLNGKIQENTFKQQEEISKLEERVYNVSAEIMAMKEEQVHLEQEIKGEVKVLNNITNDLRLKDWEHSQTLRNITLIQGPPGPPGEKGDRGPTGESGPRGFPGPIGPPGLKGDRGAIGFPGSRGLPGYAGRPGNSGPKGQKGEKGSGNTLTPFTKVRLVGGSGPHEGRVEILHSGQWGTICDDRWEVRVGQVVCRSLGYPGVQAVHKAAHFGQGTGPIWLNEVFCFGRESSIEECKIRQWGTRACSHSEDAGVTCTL

[4] = target: T4, collagen 17A1 (COL17A1) expressed on 721.221 cells (UniProt Q9UMD9 1-1497, limits assumed); assay: IHC on 721.221 stable cell lines; '-' = no detectable signal
T4 construct: whole, on cells
T4 sequence (looked up): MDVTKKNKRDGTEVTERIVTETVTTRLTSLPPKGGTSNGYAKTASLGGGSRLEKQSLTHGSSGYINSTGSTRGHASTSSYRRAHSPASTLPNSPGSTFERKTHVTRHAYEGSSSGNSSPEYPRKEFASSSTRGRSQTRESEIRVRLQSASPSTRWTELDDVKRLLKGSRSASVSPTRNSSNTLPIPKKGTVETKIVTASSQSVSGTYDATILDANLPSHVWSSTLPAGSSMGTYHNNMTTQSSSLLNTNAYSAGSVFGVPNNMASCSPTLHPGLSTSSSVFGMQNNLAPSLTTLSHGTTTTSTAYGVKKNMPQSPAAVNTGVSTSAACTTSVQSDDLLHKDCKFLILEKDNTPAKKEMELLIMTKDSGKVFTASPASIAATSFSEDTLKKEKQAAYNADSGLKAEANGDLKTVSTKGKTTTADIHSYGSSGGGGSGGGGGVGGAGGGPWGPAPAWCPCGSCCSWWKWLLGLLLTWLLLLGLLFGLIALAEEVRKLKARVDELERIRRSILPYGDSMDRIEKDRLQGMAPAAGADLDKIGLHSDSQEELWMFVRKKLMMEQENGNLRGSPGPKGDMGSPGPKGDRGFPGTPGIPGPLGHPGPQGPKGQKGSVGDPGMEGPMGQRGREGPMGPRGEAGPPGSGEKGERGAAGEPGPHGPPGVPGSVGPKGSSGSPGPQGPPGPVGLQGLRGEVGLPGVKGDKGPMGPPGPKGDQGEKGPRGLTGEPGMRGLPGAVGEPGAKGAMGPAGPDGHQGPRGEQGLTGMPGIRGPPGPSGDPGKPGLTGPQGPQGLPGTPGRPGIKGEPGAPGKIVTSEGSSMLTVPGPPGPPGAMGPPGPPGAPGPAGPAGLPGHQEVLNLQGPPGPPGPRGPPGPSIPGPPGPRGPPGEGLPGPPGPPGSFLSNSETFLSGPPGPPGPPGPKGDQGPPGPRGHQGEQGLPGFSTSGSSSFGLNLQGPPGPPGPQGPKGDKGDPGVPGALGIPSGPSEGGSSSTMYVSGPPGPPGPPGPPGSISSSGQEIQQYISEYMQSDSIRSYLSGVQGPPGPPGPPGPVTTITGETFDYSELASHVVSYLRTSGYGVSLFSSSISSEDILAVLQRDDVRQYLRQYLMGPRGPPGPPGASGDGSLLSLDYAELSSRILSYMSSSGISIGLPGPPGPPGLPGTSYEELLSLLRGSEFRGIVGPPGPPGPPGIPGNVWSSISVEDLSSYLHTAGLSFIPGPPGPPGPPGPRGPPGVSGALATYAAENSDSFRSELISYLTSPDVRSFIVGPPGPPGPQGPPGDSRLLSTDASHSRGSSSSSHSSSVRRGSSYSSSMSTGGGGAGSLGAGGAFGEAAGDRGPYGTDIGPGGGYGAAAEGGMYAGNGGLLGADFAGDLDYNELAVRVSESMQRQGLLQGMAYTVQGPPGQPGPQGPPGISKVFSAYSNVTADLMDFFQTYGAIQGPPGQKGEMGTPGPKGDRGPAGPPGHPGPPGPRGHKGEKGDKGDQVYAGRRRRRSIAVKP

[5] = target: T5, human MARCO expressed on cells (721.221-MARCO, 293T-MARCO) (human, UniProt Q9UEW3 1-520); assay: flow cytometry, antibody at 2.5 µg/mL, Alexa647 anti-mouse IgG secondary
T5 construct: also called 721.221 cells expressing MARCO
T5 sequence: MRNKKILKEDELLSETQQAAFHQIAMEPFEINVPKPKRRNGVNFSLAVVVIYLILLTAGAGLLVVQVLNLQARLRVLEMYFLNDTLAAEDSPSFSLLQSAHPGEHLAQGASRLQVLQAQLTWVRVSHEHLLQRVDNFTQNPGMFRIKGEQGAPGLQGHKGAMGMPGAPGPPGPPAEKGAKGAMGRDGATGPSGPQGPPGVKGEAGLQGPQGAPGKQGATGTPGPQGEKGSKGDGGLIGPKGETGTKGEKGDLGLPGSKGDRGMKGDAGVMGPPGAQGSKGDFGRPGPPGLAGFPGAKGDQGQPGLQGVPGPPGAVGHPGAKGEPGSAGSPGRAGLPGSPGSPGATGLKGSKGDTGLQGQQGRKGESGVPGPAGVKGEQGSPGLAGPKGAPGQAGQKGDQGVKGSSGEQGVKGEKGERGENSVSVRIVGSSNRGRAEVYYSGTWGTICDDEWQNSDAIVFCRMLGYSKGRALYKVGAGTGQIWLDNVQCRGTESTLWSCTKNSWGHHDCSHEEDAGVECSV

[6] = target: T6, CD163L expressed on transfected 293T cells (UniProt Q9NR16 41-1453); assay: flow cytometry on 293T-CD163L cells, Alexa647 anti-mouse IgG secondary
T6 construct: whole, on cells
T6 sequence (Q9NR16 41-1453): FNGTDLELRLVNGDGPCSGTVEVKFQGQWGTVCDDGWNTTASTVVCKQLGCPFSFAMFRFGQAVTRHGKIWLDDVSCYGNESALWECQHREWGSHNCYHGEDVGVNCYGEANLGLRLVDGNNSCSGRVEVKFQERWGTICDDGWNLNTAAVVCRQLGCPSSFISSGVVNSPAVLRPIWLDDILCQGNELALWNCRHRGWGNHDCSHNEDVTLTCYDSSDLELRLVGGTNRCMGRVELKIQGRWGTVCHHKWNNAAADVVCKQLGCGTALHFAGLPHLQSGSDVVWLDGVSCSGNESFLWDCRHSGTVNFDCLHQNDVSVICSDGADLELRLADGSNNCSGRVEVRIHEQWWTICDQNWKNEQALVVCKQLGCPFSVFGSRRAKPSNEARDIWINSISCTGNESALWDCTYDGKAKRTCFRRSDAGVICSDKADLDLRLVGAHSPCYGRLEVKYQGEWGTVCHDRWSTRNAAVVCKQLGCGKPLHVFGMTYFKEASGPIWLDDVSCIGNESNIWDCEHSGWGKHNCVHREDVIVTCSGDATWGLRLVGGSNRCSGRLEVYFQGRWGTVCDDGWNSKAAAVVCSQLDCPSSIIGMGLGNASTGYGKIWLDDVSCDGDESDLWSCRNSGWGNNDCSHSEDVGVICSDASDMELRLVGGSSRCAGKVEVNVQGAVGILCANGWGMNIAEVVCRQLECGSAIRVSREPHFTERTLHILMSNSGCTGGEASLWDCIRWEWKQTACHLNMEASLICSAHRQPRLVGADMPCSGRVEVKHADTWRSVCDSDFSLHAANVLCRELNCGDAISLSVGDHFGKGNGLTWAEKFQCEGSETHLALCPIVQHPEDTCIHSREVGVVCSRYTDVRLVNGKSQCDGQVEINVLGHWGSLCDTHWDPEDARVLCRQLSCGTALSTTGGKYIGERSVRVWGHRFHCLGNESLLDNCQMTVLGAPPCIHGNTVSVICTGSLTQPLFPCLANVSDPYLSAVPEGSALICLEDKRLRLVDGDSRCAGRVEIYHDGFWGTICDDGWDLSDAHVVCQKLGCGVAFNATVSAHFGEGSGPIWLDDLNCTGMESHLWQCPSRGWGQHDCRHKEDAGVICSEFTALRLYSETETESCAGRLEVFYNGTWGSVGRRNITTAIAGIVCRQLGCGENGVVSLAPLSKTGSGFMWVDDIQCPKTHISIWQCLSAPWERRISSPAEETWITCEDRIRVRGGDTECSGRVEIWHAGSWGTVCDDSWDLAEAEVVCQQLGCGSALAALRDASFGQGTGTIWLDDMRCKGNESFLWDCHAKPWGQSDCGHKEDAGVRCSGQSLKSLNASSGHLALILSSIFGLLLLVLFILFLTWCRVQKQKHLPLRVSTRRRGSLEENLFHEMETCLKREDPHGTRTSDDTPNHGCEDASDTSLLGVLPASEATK

[7] = target: T7, human MARCO (form in the assay not stated) (human, UniProt Q9UEW3 79-520, limits assumed); assay: ELISA, FACS and IHC screening
T7 sequence: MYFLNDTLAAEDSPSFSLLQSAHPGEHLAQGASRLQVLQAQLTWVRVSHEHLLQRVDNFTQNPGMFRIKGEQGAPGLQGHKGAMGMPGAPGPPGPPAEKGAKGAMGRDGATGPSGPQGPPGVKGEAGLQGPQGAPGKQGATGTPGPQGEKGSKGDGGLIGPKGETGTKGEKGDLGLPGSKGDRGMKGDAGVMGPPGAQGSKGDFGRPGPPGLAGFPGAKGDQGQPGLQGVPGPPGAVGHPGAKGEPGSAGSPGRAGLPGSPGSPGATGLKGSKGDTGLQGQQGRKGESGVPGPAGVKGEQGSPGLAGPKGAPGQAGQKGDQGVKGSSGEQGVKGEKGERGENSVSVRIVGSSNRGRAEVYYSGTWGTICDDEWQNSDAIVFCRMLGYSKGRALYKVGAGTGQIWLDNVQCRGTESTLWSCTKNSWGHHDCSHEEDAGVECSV

T1 sequence (Q6ZMJ2 whole entry): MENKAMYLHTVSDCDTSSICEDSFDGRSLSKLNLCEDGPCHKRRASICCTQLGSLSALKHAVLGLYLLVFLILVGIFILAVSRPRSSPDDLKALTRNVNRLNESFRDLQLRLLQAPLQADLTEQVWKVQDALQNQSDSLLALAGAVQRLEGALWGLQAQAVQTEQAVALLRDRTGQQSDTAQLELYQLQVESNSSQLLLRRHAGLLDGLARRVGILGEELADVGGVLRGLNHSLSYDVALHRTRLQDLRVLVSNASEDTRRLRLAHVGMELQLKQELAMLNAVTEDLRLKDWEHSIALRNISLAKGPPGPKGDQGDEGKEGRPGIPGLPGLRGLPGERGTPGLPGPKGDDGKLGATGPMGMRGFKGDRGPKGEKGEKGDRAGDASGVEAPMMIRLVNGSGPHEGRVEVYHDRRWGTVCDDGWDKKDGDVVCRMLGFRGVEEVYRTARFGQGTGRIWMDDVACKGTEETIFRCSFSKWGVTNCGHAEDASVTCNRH

binding result [1]: no binding (tested: 2.5 µg/mL)
binding result [2]: no binding
binding result [3]: no binding (tested: 2.5 µg/mL)
binding result [4]: no binding
binding result [5]: binds
binding result [6]: no binding (tested: 2.5 µg/mL)
binding result [7]: binds
B1: anti-MARCO antibody 15A3 (antibody, mouse IgG2a, kappa)
heavy: EIQLQQSGPELVKPGASVKVSCKASGYSFTDYNMYWVKQSHGKSLEWIGYIDPYNGGTSYNQKFKGKATLTVDKSSSTAFMHLNSLTSEDSAVYYCARLRSPYDYDRGDYVMDYWGQGTSVTVSSAKTTAPSVYPLAPVCGDTTGSSVTLGCLVKGYFPEPVTLTWNSGSLSSGVHTFPAVLQSDLYTLSSSVTVTSSTWPSQSITCNVAHPASSTKVDKKIEPRGPTIKPCPPCKCPAPNAAGGPSVFIFPPKIKDVLMISLSPIVTCVVVDVSEDDPDVQISWFVNNVEVHTAQTQTHREDYNSTLRVVSALPIQHQDWMSGKEFKCKVNNKDLGAPIERTISKPKGSVRAPQVYVLPPPEEEMTKKQVTLTCMVTDFMPEDIYVEWTNNGKTELNYKNTEPVLDSDGSYFMYSKLRVEKKNWVERNSYSCSVVHEGLHNHHTTKSFSRTPGK
light: DIVLTQSPASLAVSLGQRATISCRASKSVSTSGYTYMHWYQQKPGQPPKLLIYLASNLESGVPARFSGSGSGTDFTLNIHPVEEEDAATYYCQHSRELPLTFGAGTKLELKRADAAPTVSIFPPSSEQLTSGGASVVCFLNNFYPKDINVKWKIDGSERQNGVLNSWTDQDSKDSTYSMSSTLTLTKDEYERHNSYTCEATHKTSTSPIVKSFNRNEC
notes: detected with anti-mouse IgG; copies: 2 + 2

binding result [1]: no binding (tested: 2.5 µg/mL)
binding result [2]: no binding
binding result [3]: no binding (tested: 2.5 µg/mL)
binding result [4]: no binding
binding result [5]: binds
binding result [6]: no binding (tested: 2.5 µg/mL)
binding result [7]: binds
B2: anti-MARCO antibody 6D8 (antibody, mouse IgG2a, kappa)
heavy: QVQLKESGPGLVAPSQSLSIACTVSGFSLTNYAISWVRQPPGKGLEWLGVIWTGGGTNYNSTLKSRLSISKDNSKSQVFLKMNSLQTDDTARYNCARNSGDWYFDVWGPGTTVTVSSAKTTAPSVYPLAPVCGDTTGSSVTLGCLVKGYFPEPVTLTWNSGSLSSGVHTFPAVLQSDLYTLSSSVTVTSSTWPSQSITCNVAHPASSTKVDKKIEPRGPTIKPCPPCKCPAPNAAGGPSVFIFPPKIKDVLMISLSPIVTCVVVDVSEDDPDVQISWFVNNVEVHTAQTQTHREDYNSTLRVVSALPIQHQDWMSGKEFKCKVNNKDLGAPIERTISKPKGSVRAPQVYVLPPPEEEMTKKQVTLTCMVTDFMPEDIYVEWTNNGKTELNYKNTEPVLDSDGSYFMYSKLRVEKKNWVERNSYSCSVVHEGLHNHHTTKSFSRTPGK
light: DIVMSQSPSSLAVSVGEKVTMSCKSSQSLLYSSNQKNYLAWYQQKPGQSPHLLIYWASTRESGVPDRFIGSGSGTDFTLTISSVKAEDLAVYYCQQYYDYPPTFGSGTKLEIKRADAAPTVSIFPPSSEQLTSGGASVVCFLNNFYPKDINVKWKIDGSERQNGVLNSWTDQDSKDSTYSMSSTLTLTKDEYERHNSYTCEATHKTSTSPIVKSFNRNEC
notes: as for B1
